Test results published in US20240317834A1, “COMPOSITIONS AND METHODS FOR NEUROLOGICAL DISEASES” (CODA BIOTHERAPEUTICS, INC., priority 2020, published 2024).

What was measured:
[1] = system: Lenti-X 293T cells; test: YFP fluorescence quenching anion reporter plate reader assay of engineered receptors stimulated with acetylcholine or a non-native ligand; type: cell-based
Procedure, shortened: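 Lenti-X 293T cells carrying a YFP anion reporter were transiently transfected with channel DNA and assayed the next day in HEPES-buffered ECS at pH 7.2. Ligand (acetylcholine or non-native ligand) was added in NaI-substituted ECS. Percent quench was the mean of the last 10 s relative to the 15 s pre-addition baseline.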

[2] = system: rat DRG neurons; test: Rheobase shift and evoked action potentials in rat DRG neurons (current clamp); type: cell-based
Method: Using whole cell manual patch clamp electrophysiology in HEK293 cells, rat DRG neurons and rat hippocampal neurons, the EC50 of the various engineered receptors disclosed herein to Ach and non-native ligands was measured using the Hill equation with peak current measurements from escalating doses of ligand. The rheobase shift was also measured in rat DRG neurons, which reflects the efficacy of the receptors. To calculate the rheobase, first, the amount of current that can produce an action potential was determined. Then the ligand was added, followed by a step wise increase in the current injected up to 700 pA.
For manual patch clamp experiments, Cells plated on coverslips were visualized at 10× and 40× on an inverted fluorescence microscope (Olympus). Recordings were made with an Axopatch 200B amplifier and Digidata 1550B (Molecular Devices) at RT using 3-6 MOhm glass patch electrodes (Sutter, BF150-86-10). Unless otherwise stated, recordings were made in extracellular solution (ECS) containing: 140 mM sodium chloride, 4 mM potassium chloride, 1 mM magnesium chloride, 2 mM calcium chloride, 10 mM HEPES, and 10 mM D-(+)-glucose (pH=7.3 with sodium hydroxide, osmolarity=305−315 mOsm). An 8-line reservoir (AutoMate Scientific) in combination with an 8-channel zero-dead-volume perfusion pencil (AutoMate Scientific) was used for perfusion. Data was acquired using pClamp software (Molecular Devices). Traces were either analyzed in Clampfit (Molecular Devices) or using custom Python code. Plotting and statistics were performed in GraphPad Prism.
DRG rheobase experiments were performed in current clamp mode using a potassium-based internal solution containing: 100 mM potassium D-gluconate, 28 mM potassium chloride, 1 mM magnesium chloride hexahydrate, 5 mM magnesium ATP, 10 mM HEPES, and 0.5 mM EGTA (pH=7.2 with potassium hydroxide, osmolarity=290-295 mOsm, calculated liquid junction potential=−13.5 mV). To measure DRG input resistance and rheobase, 500 ms current steps (−200 pA to 700 pA) were applied the membrane in the presence and absence of a compound. No holding current was applied to the membrane for cells included in the final datasets. Data were acquired at 10 kHz, with Bessel filter at 2 kHz and series resistance compensation at 100%. Rheobase was defined as the smallest depolarizing current injection required to cause an action potential to fire in the cell. In a subset of cells, the rheobase was ambiguous, since the action potential appeared to be graded in amplitude. In these cases, a […] of the trace clarified the rheobase. Input resistance was measured from the negative current injections, calculated as the difference in membrane potential at steady state divided by the current injection amplitude and then averaged across the four negative current steps for each recording. Resting membrane potential was measured from the first 100 ms of each sweep, averaged for each recording, and corrected for liquid junction potential. One-way ANOVA with multiple comparisons was used to test for significance of difference in rheobase and input resistance between baseline, drug, and wash conditions.

B1: CODA1045: engineered chimeric LGIC receptor, R101W, Y210V in SEQ ID NO: 33 (protein)
chain: MRCSPGGVWLALAASLLHVSLQGEFQRKLYKELVKNYNPLERPVANDSQPLTVYFSLSLLQIMDVDEKNQVLTTNIWLQMSWTDHYLQWNVSEYPGVKTVWFPDGQIWKPDILLYNSADERFDATFHTNVLVNSSGHCQYLPPGIFKSSCPMDLKNFPMDVQTCKLKFGSWSYGGWSLDLQMQEADISGYIPNGEWDLVGIPGKRSERFVECCKEPYPDVTFTVTMRRRMGYYLIQMYIPSLLIVILSWISFWINMDAAPARVGLGITTVLTMTTQSSGSRASLPKVSYVKAIDIWMAVCLLFVFSALLEYAAVNFVSRQHKELLRFRRKRRHHKSPMLNLFQEDEAGEGRFNFSAYGMGPACLQAKDGISVKGANNSNTTNPPPAPSKSPEEMRKLFIQRAKKIDKISRIGFPMAFLIFNMFYWIIYKIVRREDVHNQ
modifications: synthetic sequence of chimeric LGIC
YFP fluorescence quenching using CNL001 ([1]; 1 nM CNL001, first column): 0.804% | YFP fluorescence quenching using CNL001 ([1]; 1 nM CNL001, second column): 11.275% | YFP fluorescence quenching using TC-5619/Bradanicline ([1]; 1 nM brd): −1.431% | YFP fluorescence quenching using TC-5619/Bradanicline ([1]; 3 nM brd): −14.993% | YFP fluorescence quenching using Varenicline ([1]; 3 nM var, first column): 6.745 | YFP fluorescence quenching using Varenicline ([1]; 3 nM var, second column): 8.397 | YFP fluorescence quenching using CNL001 ([1]; 10 nM CNL001, first column): 15.843% | YFP fluorescence quenching using CNL001 ([1]; 10 nM CNL001, second column): 16.619% | YFP fluorescence quenching using TC-5619/Bradanicline ([1]; 10 nM brd): −5.52% | YFP fluorescence quenching using TC-5619/Bradanicline ([1]; 30 nM brd): 15.49% | YFP fluorescence quenching using Varenicline ([1]; 30 nM var, first column): 14.1 | YFP fluorescence quenching using Varenicline ([1]; 30 nM var, second column): 19.095 | YFP fluorescence quenching using CNL001 ([1]; 50 nM CNL001, first column): 15.205% | YFP fluorescence quenching using CNL001 ([1]; 50 nM CNL001, second column): 18.771% | YFP fluorescence quenching using ABT-126 ([1]; 50 nM abt): −24.16% | YFP fluorescence quenching using CNL001 ([1]; 100 nM CNL001, first column): 9.332% | YFP fluorescence quenching using CNL001 ([1]; 100 nM CNL001, second column): 18.218% | YFP fluorescence quenching using ABT-126 ([1]; 100 nM abt): −24.7% | YFP fluorescence quenching using TC-5619/Bradanicline ([1]; 100 nM brd): 72.105% | YFP fluorescence quenching using ABT-126 ([1]; 300 nM abt): −16.09% | YFP fluorescence quenching using TC-5619/Bradanicline ([1]; 300 nM brd): 71.411% | YFP fluorescence quenching using Varenicline ([1]; 300 nM var, first column): 16.83 | YFP fluorescence quenching using Varenicline ([1]; 300 nM var, second column): 21.507 | YFP fluorescence quenching using Varenicline ([1]; 500 nM var, first column): 21.586 | YFP fluorescence quenching using Varenicline ([1]; 500 nM var, second column): 23.131 | YFP fluorescence quenching using CNL001 ([1]; 1 uM CNL001, first column): 35.294% | YFP fluorescence quenching using CNL001 ([1]; 1 uM CNL001, second column): 36.542% | YFP fluorescence quenching using ABT-126 ([1]; 1 uM abt): −11.61% | YFP fluorescence quenching using Varenicline ([1]; 1 uM var, first column): 31.591 | YFP fluorescence quenching using Varenicline ([1]; 1 uM var, second column): 26.479 | percent quench of YFP fluorescence, 30 nM TC-6683 ([1]; TC-6683 30 nM): 1.735% | percent quench of YFP fluorescence, 300 nM TC-6683 ([1]; TC-6683 300 nM): 0.642% | percent quench of YFP fluorescence, 3 uM TC-6683 ([1]; TC-6683 3 uM): 2.403% | percent quench of YFP fluorescence, 30 uM TC-6683 ([1]; TC-6683 30 uM): 6.006% | percent quench of YFP fluorescence, 100 uM TC-6683 ([1]; TC-6683 100 uM): −4.277% | percent quench of YFP fluorescence, 10 uM ach ([1]; acetylcholine 10 uM): −2.52% | percent quench of YFP fluorescence, 100 uM ach ([1]; acetylcholine 100 uM): −11.98% | percent quench of YFP fluorescence, 300 uM ach ([1]; acetylcholine 300 uM): −16.71% | percent quench of YFP fluorescence, 500 uM ach ([1]; acetylcholine 500 uM): −12.87% | percent quench of YFP fluorescence, 1 mM ach ([1]; acetylcholine 1 mM): −14.41% | percent quench of YFP fluorescence, 3 mM ach ([1]; acetylcholine 3 mM): −7.4% | percent quench of YFP fluorescence, 10 mM ach ([1]; acetylcholine 10 mM): −1.5% | Rheobase Shift; Rat DRG Neurons, +TC-5619 @ EC90 ([2]; +TC-5619 @ EC90): 700 ± 0 pA | Rheobase Shift; Rat DRG Neurons, Baseline ([2]; Baseline, no ligand): 141 ± 22 pA
